Test results published in PMC9482650, “Quantitative fragmentomics allow affinity mapping of interactomes” (Nature Communications, 2022).

Assays:
Assay in all cases: holdup assay
Set-up in all cases: key: below the threshold = too weak to quantify, mostly under pKd 3.1 to 4
DFNB31_2, Q9P202 = biological target: T1, DFNB31_2, Q9P202
T1 sequence (Q9P202 274-371, limits assumed, looked up): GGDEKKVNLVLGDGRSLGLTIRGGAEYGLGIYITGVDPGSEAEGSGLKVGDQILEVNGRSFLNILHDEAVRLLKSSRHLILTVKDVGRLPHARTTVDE

DLG2_2, Q15700 = biological target: DLG2_2, Q15700
Chain of DLG2_2, Q15700 (Q15700 189-283): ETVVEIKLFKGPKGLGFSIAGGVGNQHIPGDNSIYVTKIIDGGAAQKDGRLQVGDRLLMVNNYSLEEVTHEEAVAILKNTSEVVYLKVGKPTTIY

GRIP1_2, Q9Y3R0 = biological target: T2, GRIP1_2, Q9Y3R0
T2 sequence (Q9Y3R0 145-248, limits assumed, looked up): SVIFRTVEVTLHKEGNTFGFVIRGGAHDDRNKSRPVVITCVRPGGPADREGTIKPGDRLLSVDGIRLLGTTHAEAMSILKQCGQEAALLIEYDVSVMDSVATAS

GRIP2_3, Q9C0E4 = biological target: GRIP2_3, Q9C0E4
Chain of GRIP2_3, Q9C0E4 (Q9C0E4 238-339): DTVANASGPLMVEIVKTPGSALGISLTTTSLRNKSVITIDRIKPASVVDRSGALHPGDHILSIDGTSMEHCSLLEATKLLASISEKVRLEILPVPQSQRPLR

HTRA2, O43464 = biological target: HTRA2, O43464
Chain of HTRA2, O43464 (O43464 355-458): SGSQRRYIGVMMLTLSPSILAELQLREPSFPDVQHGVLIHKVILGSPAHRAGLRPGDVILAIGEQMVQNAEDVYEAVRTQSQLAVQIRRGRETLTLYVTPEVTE

HTRA4, P83105 = biological target: T3, HTRA4, P83105
T3 sequence (P83105 378-476, limits assumed, looked up): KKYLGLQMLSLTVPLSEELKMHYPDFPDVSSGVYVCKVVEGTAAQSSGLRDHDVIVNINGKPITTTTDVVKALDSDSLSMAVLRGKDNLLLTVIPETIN

IL16_4, Q14005 = biological target: IL16_4, Q14005
Chain of IL16_4, Q14005 (Q14005 1229-1329): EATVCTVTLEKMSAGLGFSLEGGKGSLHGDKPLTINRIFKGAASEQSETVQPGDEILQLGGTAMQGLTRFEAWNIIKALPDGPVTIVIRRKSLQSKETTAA

Inadl_3, Q8NI35 = biological target: Inadl_3, Q8NI35
Chain of Inadl_3, Q8NI35 (Q8NI35 359-469): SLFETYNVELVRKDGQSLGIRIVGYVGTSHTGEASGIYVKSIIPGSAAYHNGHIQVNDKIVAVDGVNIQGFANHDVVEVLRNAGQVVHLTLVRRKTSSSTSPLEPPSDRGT

Inadl_4, Q8NI35 = biological target: Inadl_4, Q8NI35
Chain of Inadl_4, Q8NI35 (Q8NI35 547-651): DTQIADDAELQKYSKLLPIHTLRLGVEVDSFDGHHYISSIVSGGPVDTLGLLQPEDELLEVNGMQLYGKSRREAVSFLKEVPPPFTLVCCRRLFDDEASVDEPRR

MAGI1_1, Q96QZ7 = biological target: MAGI1_1, Q96QZ7
Chain of MAGI1_1, Q96QZ7 (Q96QZ7 1-106): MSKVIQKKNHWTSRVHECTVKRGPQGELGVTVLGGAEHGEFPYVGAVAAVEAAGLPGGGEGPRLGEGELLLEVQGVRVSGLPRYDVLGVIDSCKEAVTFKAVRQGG

MAGI3_2, Q5TCQ9 = biological target: MAGI3_2, Q5TCQ9
Chain of MAGI3_2, Q5TCQ9 (Q5TCQ9 398-503): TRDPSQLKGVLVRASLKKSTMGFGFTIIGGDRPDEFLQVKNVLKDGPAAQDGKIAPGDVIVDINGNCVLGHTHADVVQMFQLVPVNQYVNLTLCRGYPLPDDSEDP

MPP2, Q14168 = biological target: T4, MPP2, Q14168
T4 sequence (Q14168 180-250, limits assumed, looked up): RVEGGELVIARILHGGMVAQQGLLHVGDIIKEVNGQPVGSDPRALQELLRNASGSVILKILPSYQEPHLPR

NHERF2_2, Q15599 = biological target: NHERF2_2, Q15599
Chain of NHERF2_2, Q15599 (Q15599 142-238): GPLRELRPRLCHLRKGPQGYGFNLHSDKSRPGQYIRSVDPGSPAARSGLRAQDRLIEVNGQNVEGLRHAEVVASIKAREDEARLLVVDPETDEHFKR

PARD3B_1, Q8TEW8 = biological target: T5, PARD3B_1, Q8TEW8
T5 sequence (Q8TEW8 196-299, limits assumed, looked up): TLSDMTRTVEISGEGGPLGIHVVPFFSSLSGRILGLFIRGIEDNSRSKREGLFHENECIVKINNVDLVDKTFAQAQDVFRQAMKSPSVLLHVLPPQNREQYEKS

PARD3_3, Q8TEW0 = biological target: PARD3_3, Q8TEW0
Chain of PARD3_3, Q8TEW0 (Q8TEW0 582-685): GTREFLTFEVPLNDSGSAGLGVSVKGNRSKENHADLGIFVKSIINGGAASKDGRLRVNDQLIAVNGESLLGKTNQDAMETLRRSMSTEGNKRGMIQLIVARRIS

SHANK1, Q9Y566 = biological target: T6, SHANK1, Q9Y566
T6 sequence (Q9Y566 658-767, limits assumed, looked up): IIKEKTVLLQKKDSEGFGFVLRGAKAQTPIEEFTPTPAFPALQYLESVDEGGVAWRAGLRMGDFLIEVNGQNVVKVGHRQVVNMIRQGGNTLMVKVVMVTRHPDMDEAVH

ARHGAP21, Q5T5U3 = biological target: T7, ARHGAP21, Q5T5U3
T7 sequence (Q5T5U3 45-169, limits assumed, looked up): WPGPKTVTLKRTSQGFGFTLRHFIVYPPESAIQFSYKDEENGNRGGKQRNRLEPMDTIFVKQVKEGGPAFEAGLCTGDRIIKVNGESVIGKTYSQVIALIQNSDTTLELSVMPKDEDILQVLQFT

DLG5_1, Q8TDM6 = biological target: DLG5_1, Q8TDM6
Chain of DLG5_1, Q8TDM6 (Q8TDM6 617-713): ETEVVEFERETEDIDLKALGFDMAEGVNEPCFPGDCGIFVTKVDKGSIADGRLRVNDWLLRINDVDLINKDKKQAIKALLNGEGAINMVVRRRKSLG

FRMPD2_2, Q68DX3 = biological target: FRMPD2_2, Q68DX3
Chain of FRMPD2_2, Q68DX3 (Q68DX3 944-1038): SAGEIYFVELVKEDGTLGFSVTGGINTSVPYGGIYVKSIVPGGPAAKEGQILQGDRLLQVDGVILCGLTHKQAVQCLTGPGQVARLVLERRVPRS

GRASP, Q7Z6J2 = biological target: GRASP, Q7Z6J2
Chain of GRASP, Q7Z6J2 (Q7Z6J2 96-193): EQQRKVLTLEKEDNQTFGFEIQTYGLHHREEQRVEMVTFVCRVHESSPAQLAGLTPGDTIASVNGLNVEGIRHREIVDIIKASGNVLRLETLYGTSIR

LAP2, Q96RT1 = biological target: LAP2, Q96RT1
Chain of LAP2, Q96RT1 (Q96RT1 other isoform, or with tags, fused parts or gaps): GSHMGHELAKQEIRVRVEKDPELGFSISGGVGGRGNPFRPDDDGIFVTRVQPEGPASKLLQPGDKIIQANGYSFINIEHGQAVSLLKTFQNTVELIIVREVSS

MAGI2_5, Q86UL8 = biological target: MAGI2_5, Q86UL8
Chain of MAGI2_5, Q86UL8 (Q86UL8 915-1017): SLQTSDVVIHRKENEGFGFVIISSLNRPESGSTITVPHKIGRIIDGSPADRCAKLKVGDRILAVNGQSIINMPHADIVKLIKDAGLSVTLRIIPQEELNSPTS

TX1BP3, O14907 = biological target: T8, TX1BP3, O14907
T8 sequence (O14907 10-122, limits assumed, looked up): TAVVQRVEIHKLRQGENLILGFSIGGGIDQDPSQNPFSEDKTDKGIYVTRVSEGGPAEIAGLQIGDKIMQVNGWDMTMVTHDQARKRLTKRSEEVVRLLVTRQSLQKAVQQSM

PDZRN3_1, Q9UPQ7 = biological target: T9, PDZRN3_1, Q9UPQ7
T9 sequence (Q9UPQ7 244-349, limits assumed, looked up): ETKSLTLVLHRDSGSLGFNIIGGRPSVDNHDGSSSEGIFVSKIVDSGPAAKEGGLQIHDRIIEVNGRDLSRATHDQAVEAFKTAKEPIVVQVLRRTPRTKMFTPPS

SNTB1, Q13884 = biological target: T10, SNTB1, Q13884
T10 sequence (Q13884 107-205, limits assumed, looked up): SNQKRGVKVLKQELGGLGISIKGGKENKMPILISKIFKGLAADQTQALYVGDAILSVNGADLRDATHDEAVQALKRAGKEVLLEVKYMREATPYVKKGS

GOPC, Q9HD26 = details: plain residues with an end cap or a label only (N-terminal biotin on a linker: ado-ado)
[1] = plain residues with an end cap or a label only (N-terminal biotin on a linker: ado-ado)
[2] = modified: phospho on T at position -2 from the C-terminal residue

B1: MUC3A, MUC3B, Q02505;Q9H195 (peptide)
chain: KRPEMTSSSV
DFNB31_2, Q9P202; [1]
  pKd: below the threshold
DLG2_2, Q15700; [1]
  pKd: 3.54
GRIP1_2, Q9Y3R0; [1]
  pKd: below the threshold
GRIP2_3, Q9C0E4; [1]
  pKd: below the threshold
HTRA2, O43464; [1]
  pKd: below the threshold
HTRA4, P83105; [1]
  pKd: below the threshold
IL16_4, Q14005; [1]
  pKd: 1.87
Inadl_3, Q8NI35; [1]
  pKd: below the threshold
Inadl_4, Q8NI35; [1]
  pKd: below the threshold
MAGI1_1, Q96QZ7; [1]
  pKd: below the threshold
MAGI3_2, Q5TCQ9; [1]
  pKd: 3.86
MPP2, Q14168; [1]
  pKd: below the threshold
NHERF2_2, Q15599; [1]
  pKd: below the threshold
PARD3B_1, Q8TEW8; [1]
  pKd: below the threshold
PARD3_3, Q8TEW0; [1]
  pKd: below the threshold
SHANK1, Q9Y566; [1]
  pKd: 3.92

B2: NF2, P35240;P35240-1 (peptide)
chain: KSRVAFFEEL
ARHGAP21, Q5T5U3; [1]
  pKd: below the threshold
DFNB31_2, Q9P202; [1]
  pKd: below the threshold
DLG5_1, Q8TDM6; [1]
  pKd: below the threshold
FRMPD2_2, Q68DX3; [1]
  pKd: below the threshold
GRASP, Q7Z6J2; [1]
  pKd: 4.08
GRIP1_2, Q9Y3R0; [1]
  pKd: below the threshold
GRIP2_3, Q9C0E4; [1]
  pKd: below the threshold
HTRA4, P83105; [1]
  pKd: 4.4
Inadl_3, Q8NI35; [1]
  pKd: 4.28
Inadl_4, Q8NI35; [1]
  pKd: below the threshold
LAP2, Q96RT1; [1]
  pKd: below the threshold
MAGI1_1, Q96QZ7; [1]
  pKd: below the threshold
MAGI2_5, Q86UL8; [1]
  pKd: below the threshold
MAGI3_2, Q5TCQ9; [1]
  pKd: below the threshold
MPP2, Q14168; [1]
  pKd: below the threshold
SHANK1, Q9Y566; [1]
  pKd: below the threshold
TX1BP3, O14907; [1]
  pKd: 4.34

B3: HPV16-E6_-2P, P03126 (peptide)
chain: SSRTRRETQL
ARHGAP21, Q5T5U3; [2]
  pKd: 4.05
DFNB31_2, Q9P202; [2]
  pKd: below the threshold
DLG2_2, Q15700; [2]
  pKd: below the threshold
DLG5_1, Q8TDM6; [2]
  pKd: below the threshold
FRMPD2_2, Q68DX3; [2]
  pKd: below the threshold
GRASP, Q7Z6J2; [2]
  pKd: below the threshold
GRIP1_2, Q9Y3R0; [2]
  pKd: below the threshold
GRIP2_3, Q9C0E4; [2]
  pKd: below the threshold
HTRA2, O43464; [2]
  pKd: below the threshold
HTRA4, P83105; [2]
  pKd: below the threshold
IL16_4, Q14005; [2]
  pKd: below the threshold
Inadl_3, Q8NI35; [2]
  pKd: below the threshold
Inadl_4, Q8NI35; [2]
  pKd: below the threshold
LAP2, Q96RT1; [2]
  pKd: below the threshold
MAGI1_1, Q96QZ7; [2]
  pKd: below the threshold
MAGI2_5, Q86UL8; [2]
  pKd: below the threshold
MAGI3_2, Q5TCQ9; [2]
  pKd: below the threshold
MPP2, Q14168; [2]
  pKd: below the threshold
NHERF2_2, Q15599; [2]
  pKd: below the threshold
PARD3B_1, Q8TEW8; [2]
  pKd: below the threshold
PARD3_3, Q8TEW0; [2]
  pKd: below the threshold
PDZRN3_1, Q9UPQ7; [2]
  pKd: below the threshold
SHANK1, Q9Y566; [2]
  pKd: below the threshold
SNTB1, Q13884; [2]
  pKd: below the threshold
TX1BP3, O14907; [2]
  pKd: 3.98

B4: MYPN, Q86TC9 (peptide)
chain: SRSVVESDEL
ARHGAP21, Q5T5U3; [1]
  pKd: 3.51
DFNB31_2, Q9P202; [1]
  pKd: below the threshold
DLG2_2, Q15700; [1]
  pKd: below the threshold
DLG5_1, Q8TDM6; [1]
  pKd: below the threshold
FRMPD2_2, Q68DX3; [1]
  pKd: below the threshold
GOPC, Q9HD26
  pKd: below the threshold
GRASP, Q7Z6J2; [1]
  pKd: 4.14
GRIP1_2, Q9Y3R0; [1]
  pKd: below the threshold
GRIP2_3, Q9C0E4; [1]
  pKd: below the threshold
HTRA2, O43464; [1]
  pKd: below the threshold
HTRA4, P83105; [1]
  pKd: below the threshold
IL16_4, Q14005; [1]
  pKd: below the threshold
Inadl_3, Q8NI35; [1]
  pKd: below the threshold
Inadl_4, Q8NI35; [1]
  pKd: below the threshold
LAP2, Q96RT1; [1]
  pKd: below the threshold
MAGI1_1, Q96QZ7; [1]
  pKd: 3.53
MAGI2_5, Q86UL8; [1]
  pKd: 3.95
MAGI3_2, Q5TCQ9; [1]
  pKd: below the threshold
MPP2, Q14168; [1]
  pKd: below the threshold
NHERF2_2, Q15599; [1]
  pKd: 3.86
PARD3B_1, Q8TEW8; [1]
  pKd: below the threshold
PARD3_3, Q8TEW0; [1]
  pKd: below the threshold
PDZRN3_1, Q9UPQ7; [1]
  pKd: below the threshold
SHANK1, Q9Y566; [1]
  pKd: below the threshold
SNTB1, Q13884; [1]
  pKd: below the threshold
TX1BP3, O14907; [1]
  pKd: below the threshold

B5: CRIPT, Q9P021 (peptide)
chain: DTKNYKQTSV
ARHGAP21, Q5T5U3; [1]
  pKd: 3.75
DFNB31_2, Q9P202; [1]
  pKd: 3.74
DLG2_2, Q15700; [1]
  pKd: 4.71
DLG5_1, Q8TDM6; [1]
  pKd: below the threshold
FRMPD2_2, Q68DX3; [1]
  pKd: below the threshold
GOPC, Q9HD26
  pKd: 3.87
GRASP, Q7Z6J2; [1]
  pKd: 4.11
GRIP1_2, Q9Y3R0; [1]
  pKd: below the threshold
GRIP2_3, Q9C0E4; [1]
  pKd: below the threshold
HTRA2, O43464; [1]
  pKd: below the threshold
HTRA4, P83105; [1]
  pKd: 3.95
IL16_4, Q14005; [1]
  pKd: 3.71
Inadl_3, Q8NI35; [1]
  pKd: below the threshold
Inadl_4, Q8NI35; [1]
  pKd: below the threshold
LAP2, Q96RT1; [1]
  pKd: 4.32
MAGI1_1, Q96QZ7; [1]
  pKd: below the threshold
MAGI2_5, Q86UL8; [1]
  pKd: 4.26
MAGI3_2, Q5TCQ9; [1]
  pKd: 4.72
MPP2, Q14168; [1]
  pKd: below the threshold
NHERF2_2, Q15599; [1]
  pKd: 3.73
PARD3B_1, Q8TEW8; [1]
  pKd: 3.48
PARD3_3, Q8TEW0; [1]
  pKd: below the threshold
PDZRN3_1, Q9UPQ7; [1]
  pKd: 4.12
SHANK1, Q9Y566; [1]
  pKd: below the threshold
SNTB1, Q13884; [1]
  pKd: 4.73
TX1BP3, O14907; [1]
  pKd: 5.4

B6: CNTNAP2, Q9UHC6 (peptide)
chain: IDESKKEWLI
ARHGAP21, Q5T5U3; [1]
  pKd: below the threshold
DFNB31_2, Q9P202; [1]
  pKd: below the threshold
DLG2_2, Q15700; [1]
  pKd: below the threshold
DLG5_1, Q8TDM6; [1]
  pKd: below the threshold
FRMPD2_2, Q68DX3; [1]
  pKd: below the threshold
GOPC, Q9HD26
  pKd: below the threshold
GRASP, Q7Z6J2; [1]
  pKd: below the threshold
GRIP1_2, Q9Y3R0; [1]
  pKd: below the threshold
GRIP2_3, Q9C0E4; [1]
  pKd: below the threshold
HTRA2, O43464; [1]
  pKd: 3.49
HTRA4, P83105; [1]
  pKd: below the threshold
IL16_4, Q14005; [1]
  pKd: 3.79
Inadl_3, Q8NI35; [1]
  pKd: 5.46
Inadl_4, Q8NI35; [1]
  pKd: below the threshold
LAP2, Q96RT1; [1]
  pKd: below the threshold
MAGI1_1, Q96QZ7; [1]
  pKd: below the threshold
MAGI2_5, Q86UL8; [1]
  pKd: below the threshold
MAGI3_2, Q5TCQ9; [1]
  pKd: 4.06
MPP2, Q14168; [1]
  pKd: 4.78
NHERF2_2, Q15599; [1]
  pKd: below the threshold
PARD3B_1, Q8TEW8; [1]
  pKd: 4.63
PARD3_3, Q8TEW0; [1]
  pKd: 5.28
PDZRN3_1, Q9UPQ7; [1]
  pKd: below the threshold
SHANK1, Q9Y566; [1]
  pKd: below the threshold
SNTB1, Q13884; [1]
  pKd: below the threshold
TX1BP3, O14907; [1]
  pKd: below the threshold
